Test results taken from publication PMC4312099 (Nature, 2014).

Biological target: recombinant human core Mitotic Checkpoint Complex (untagged CDC20, SBP-BUBR1, His6-MAD2) (human, UniProt Q12834;O60566;Q13257)
Assay: pull-down

Sequence of recombinant human core Mitotic Checkpoint Complex (untagged CDC20, SBP-BUBR1, His6-MAD2) (O60566 whole entry, chain 2 of 2): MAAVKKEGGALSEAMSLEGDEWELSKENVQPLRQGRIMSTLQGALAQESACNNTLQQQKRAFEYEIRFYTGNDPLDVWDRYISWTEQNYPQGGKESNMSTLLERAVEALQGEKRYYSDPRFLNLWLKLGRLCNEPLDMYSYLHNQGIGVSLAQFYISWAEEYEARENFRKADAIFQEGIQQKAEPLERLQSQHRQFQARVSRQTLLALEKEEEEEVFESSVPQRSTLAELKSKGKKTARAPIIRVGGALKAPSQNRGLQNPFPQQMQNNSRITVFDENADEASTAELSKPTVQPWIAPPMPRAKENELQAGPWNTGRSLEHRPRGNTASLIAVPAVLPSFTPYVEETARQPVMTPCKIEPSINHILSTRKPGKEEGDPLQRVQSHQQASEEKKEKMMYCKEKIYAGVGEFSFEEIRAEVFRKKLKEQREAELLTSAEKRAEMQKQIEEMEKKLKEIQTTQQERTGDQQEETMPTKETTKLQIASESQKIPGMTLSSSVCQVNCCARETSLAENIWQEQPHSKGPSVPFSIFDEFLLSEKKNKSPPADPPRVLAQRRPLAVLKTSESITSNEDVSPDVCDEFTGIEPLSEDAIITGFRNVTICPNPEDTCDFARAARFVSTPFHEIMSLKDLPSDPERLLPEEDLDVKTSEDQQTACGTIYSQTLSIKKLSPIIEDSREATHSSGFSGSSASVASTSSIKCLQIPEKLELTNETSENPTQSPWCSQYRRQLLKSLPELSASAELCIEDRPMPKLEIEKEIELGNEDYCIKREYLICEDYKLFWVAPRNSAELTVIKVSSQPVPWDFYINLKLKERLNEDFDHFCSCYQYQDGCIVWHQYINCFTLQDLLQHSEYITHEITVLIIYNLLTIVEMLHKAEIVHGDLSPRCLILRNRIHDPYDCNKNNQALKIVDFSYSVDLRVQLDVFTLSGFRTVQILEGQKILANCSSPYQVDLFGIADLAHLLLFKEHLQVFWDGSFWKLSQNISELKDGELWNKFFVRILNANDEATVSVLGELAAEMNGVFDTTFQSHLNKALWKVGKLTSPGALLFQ
Sequence of recombinant human core Mitotic Checkpoint Complex (untagged CDC20, SBP-BUBR1, His6-MAD2) (Q13257 whole entry, chain 3 of 2): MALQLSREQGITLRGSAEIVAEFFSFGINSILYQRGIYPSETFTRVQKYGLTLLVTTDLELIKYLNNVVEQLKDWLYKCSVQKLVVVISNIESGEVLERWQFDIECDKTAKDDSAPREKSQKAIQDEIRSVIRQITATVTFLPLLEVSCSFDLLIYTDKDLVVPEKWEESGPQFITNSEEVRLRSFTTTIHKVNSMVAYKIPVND

B1: recombinant His6-tagged CDC20 ΔKILR (K129ILR/AAAA) mutant (natural protein)
chain: MAQFAFESDLHSLLQLDAPIPNAPPARWQRKAKEAAGPAPSPMRAANRSHSAGRTPGRTPGKSSSKVQTTPSKPGGDRYIPHRSAAQMEVASFLLSKENQPENSQTPTKKEHQKAWALNLNGFDVEEAAAAALSGKPQNAPEGYQNRLKVLYSQKATPGSSRKTCRYIPSLPDRILDAPEIRNDYYLNLVDWSSGNVLAVALDNSVYLWSASSGDILQLLQMEQPGEYISSVAWIKEGNYLAVGTSSAEVQLWDVQQQKRLRNMTSHSARVGSLSWNSYILSSGSRSGHIHHHDVRVAEHHVATLSGHSQEVCGLRWAPDGRHLASGGNDNLVNVWPSAPGEGGWVPLQTFTQHQGAVKAVAWCPWQSNVLATGGGTSDRHIRIWNVCSGACLSAVDAHSQVCSILWSPHYKELISGHGFAQNQLVIWKYPTMAKVAELKGHTSRVLSLTMSPDGATVASAAADETLRLWRCFELDPARRREREKASAAKSSLIHQGIR
B1: binds.
